Experimental data as given in CN111909265A (INST MILITARY MEDICINE ACADEMY MILITARY SCIENCES PLA, dated 2020).

Experiments:
破伤风类毒素 (TT) [1] = biological target: T1, 破伤风类毒素 (TT) (破伤风梭菌 (C.tetani), UniProt P04958 2-1315)
破伤风类毒素 (TT) [2] = biological target: T1, 破伤风类毒素 (TT); assay: ELISA, coated TT 1 μg/mL, T9-6 titrated 1:3 from 3.3 μg/mL
[3] = biological target: T2, 破伤风毒素重链C端结构域 (TeNT-HC, GenBank:AF154828) (破伤风梭菌 (C.tetani), UniProt P04958 865-1315); assay: ELISA, coated TeNT-HC 1 μg/mL, T9-6 titrated 1:3 from 3.3 μg/mL
T2 sequence: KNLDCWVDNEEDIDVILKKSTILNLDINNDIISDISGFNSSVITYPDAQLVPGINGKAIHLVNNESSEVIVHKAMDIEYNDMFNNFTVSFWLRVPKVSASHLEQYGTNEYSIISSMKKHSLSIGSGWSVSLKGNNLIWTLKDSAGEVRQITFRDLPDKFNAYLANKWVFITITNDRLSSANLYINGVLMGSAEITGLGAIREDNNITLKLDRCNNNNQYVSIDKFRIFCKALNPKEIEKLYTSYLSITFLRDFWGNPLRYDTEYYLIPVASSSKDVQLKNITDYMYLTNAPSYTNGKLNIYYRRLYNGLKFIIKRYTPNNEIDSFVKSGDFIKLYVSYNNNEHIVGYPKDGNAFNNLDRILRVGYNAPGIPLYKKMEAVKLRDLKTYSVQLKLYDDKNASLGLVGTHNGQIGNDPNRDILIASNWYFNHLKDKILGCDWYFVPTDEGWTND

T1 sequence (P04958 2-457 limits assumed): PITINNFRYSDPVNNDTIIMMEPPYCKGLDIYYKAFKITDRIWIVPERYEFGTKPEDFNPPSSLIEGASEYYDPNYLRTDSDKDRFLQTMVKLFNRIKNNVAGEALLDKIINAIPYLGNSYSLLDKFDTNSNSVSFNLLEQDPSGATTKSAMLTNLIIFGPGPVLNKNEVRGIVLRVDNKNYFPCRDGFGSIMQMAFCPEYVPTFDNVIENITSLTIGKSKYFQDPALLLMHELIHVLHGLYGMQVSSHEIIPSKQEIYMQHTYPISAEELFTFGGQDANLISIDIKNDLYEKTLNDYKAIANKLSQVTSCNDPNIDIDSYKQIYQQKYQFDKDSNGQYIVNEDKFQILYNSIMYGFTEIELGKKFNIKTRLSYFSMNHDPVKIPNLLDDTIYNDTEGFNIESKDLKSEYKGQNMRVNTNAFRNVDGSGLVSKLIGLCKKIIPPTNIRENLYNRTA

B1: T9-6 人源抗破伤风毒素单克隆抗体 (antibody, V domains shown)
VH: QLVQSGGGLIQPGGSLRLSCAASGSGFSVSSNYMTWVRQAPGKGLEWVAVIYRNGSTNYADSVRGRFTISRDNSKNTVFVQMNRLRVEDTAVYYCARDFVVVVSTGPEVSYYSYGMDVWGQGTMVTGSS
VL: DIVMTQSPSSLSASVGDRVTITCRASQGISDYLSWYQQKPGKAPKRLIYGTSSLDSGVPSRFSGSGSGTEFTLTISSLQPEDVATYYCLQHHGFPRTFGQGTKVDIKR
Q: Which results are given for B1?
A: Kd (破伤风类毒素 (TT) [1]): 0.397 nM; EC50 (破伤风类毒素 (TT) [2]): 6.18 ng/mL; EC50 [3]: 3.45 ng/mL
